This is an account of results in patent US20260125469A1 (Hoffmann-La Roche, published 2026).

Assay [1] concerns the target T1, Human CD3ε stalk-Fc(knob)-Avi/CD3δ stalk-Fc(hole) (human).
T1 construct: Heterodimer of CD3 delta and CD3 epsilon ectodomains fused to human Fc with knob-into-hole; also called human CD3ε/δ; CD3 antigen
The experiment in a line: SPR, TCB captured by anti-PG antibody, antigen as analyte, 25°C. The source says:
(§1) For affinity measurements, TCB molecules were captured on a C1 sensorchip (GE Healthcare) surface with immobilized anti-Fc(P329G) IgG (an antibody that specifically binds human IgG₁ Fc(P329G); “anti-PG antibody”—see WO 2017/072210, incorporated herein by reference). The experimental setup is schematically depicted in FIG. 3. Capture IgG was coupled to the sensorchip surface by direct immobilization of around 400 resonance units (RU) using the standard amine coupling kit (GE Healthcare Life Sciences).
(§2) Kinetic constants were derived using the Biacore T200 Evaluation Software (GE Healthcare Life Sciences), to fit rate equations for 1:1 Langmuir binding by numerical integration. The half-life (t_{1/2}) of the interaction was calculated using the formula t_{1/2}=ln2/koff.
(§3) To analyze the interaction to CD3, TCB molecules were captured for 240 s at 25 nM with a flow rate of 10 μl/min. Human and cynomolgus CD3F stalk-Fc(knob)-Avi/CD36-stalk-Fc(hole) were passed at a concentration of 0.14-100 nM with a flow rate of […] through the flow cells for 240 s. The dissociation was monitored for 800 s.
(Surface plasmon resonance follows binding to a sensor surface in real time, without labels.)

Assay [2] has as its target T2, Cynomolgus CD3ε stalk-Fc(knob)-Avi/CD3δ stalk-Fc(hole) (cynomolgus).
T2 construct: also called cynomolgus CD3ε/δ
The assay is described as above.
Description: as §1, §2, §3

Assay [3] concerns the target T1, Human CD3ε stalk-Fc(knob)-Avi/CD3δ …. Kind of assay: SPR on immobilized human CD3ε/δ after stress, relative to sample kept at -80°C pH 6. The procedure: In order to assess the effect of the deamidation site removal and its effect on the stability of the antibodies, the optimized anti-CD3 antibodies (in TCB format) were incubated for 14 days at 37° C., pH 7.4 and at 40° C., pH 6 and further analyzed by SPR for their binding capability to human CD3ε/δ. Samples stored at −80° C. pH 6 were used as reference. The reference samples and the samples stressed at 40° C. were in 20 mM His, 140 mM NaCl, pH 6.0, and the samples stressed at 37° C. in PBS, pH 7.4, all at a concentration of 1.0 mg/ml. After the stress period (14 days) samples in PBS were dialyzed back to 20 mM His, 140 mM NaCl, pH 6.0 for further analysis.
(§4) All SPR experiments were performed on a Biacore T200 instrument (GE Healthcare) at 25° C. with HBS-P+ (10 mM HEPES, 150 mM NaCl pH 7.4, 0.05% Surfactant P20) as running and dilution buffer. Biotinylated human CD3ε/δ (see Example 3, SEQ ID NOs 41 and 42) as well as biotinylated anti-huIgG (Capture Select, Thermo Scientific, #7103262100) were immobilized on a Series S Sensor Chip SA (GE Healthcare, #29104992), resulting in surface densities of at least 1000 resonance units (RU). Anti-CD3 antibodies with a concentration of 2 μg/ml were injected for 30 s at a flow rate of 5 μl/min, and dissociation was monitored for 120 s. The surface was regenerated by injecting 10 mM glycine pH 1.5 for 60 s. Bulk refractive index differences were corrected by subtracting blank injections and by subtracting the response obtained from a blank control flow cell. For evaluation, the binding response 5 seconds after injection end was taken. To normalize the binding signal, the CD3 binding was divided by the anti-huIgG response (the signal (RU) obtained upon capture of the CD3 antibody on the immobilized anti-huIgG antibody). The relative binding activity was calculated by referencing each temperature stressed sample to the corresponding, non-stressed sample.
The experiment was performed as described in Example 4, using the TCB molecules prepared in Example 7.

Assay [4] has as its target human CD3 on cells (CD3ε) (human, UniProt P07766 23-207). The experiment in a line: cell-based or functional assay.
In assay [5] the target is T1, Human CD3ε stalk-Fc(knob)-Avi/CD3δ …. The experiment in a line: SPR on immobilized human CD3ε/δ after stress, relative to sample kept at -80°C pH 6. The procedure: as §4
The experiment was performed as described in Example 4, using the monovalent IgG molecules prepared in Example 19.
The source holds these as a separate data set.

Assay [6] shares this target. Kind of assay: SPR, monovalent IgG captured by anti-PG antibody, antigen as analyte, 25°C. The procedure: (§5) SPR experiments were performed as described in Example 3, with the monovalent IgG molecules prepared in Example 19.
(§6) To analyze the interaction to CD3, IgG molecules were captured for 240 s at 50 nM with a flow rate of 5 μl/min. Human and cynomolgus CD3F stalk-Fc(knob)-Avi/CD36-stalk-Fc(hole) were passed at a concentration of 0.061-250 nM with a flow rate of […] through the flow cells for 300 s. The dissociation was monitored for 800 s.

Assay [7] addresses T2, Cynomolgus CD3ε stalk-Fc(knob)-Avi/CD3δ …. Described as above. How it is done:
as §5, §6

Positions count from the first letter of the chain named. Where two headings read alike, the source gives them in different places.

Sequence of human CD3 on cells (CD3ε) (P07766 23-207 limits assumed): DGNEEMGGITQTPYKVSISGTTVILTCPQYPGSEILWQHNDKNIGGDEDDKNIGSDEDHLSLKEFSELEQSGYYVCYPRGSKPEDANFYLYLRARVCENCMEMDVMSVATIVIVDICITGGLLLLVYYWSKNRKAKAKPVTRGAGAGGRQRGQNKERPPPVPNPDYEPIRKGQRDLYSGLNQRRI

B1: CEACAM5-TCB, CEACAM5 CD3 variant P035.093 (bispecific antibody, human IgG1, kappa, L234A L235A)
heavy 1: not shown
heavy 2: QVQLVQSGAEVKKPGSSVKVSCKASGFNIKDTYMHWVRQAPGQGLEWMGRIDPANGNSKYVPKFQGRVTITADTSTSTAYMELSSLRSEDTAVYYCAPFGYYVSDYAMAYWGQGTLVTVSSASTKGPSVFPLAPSSKSTSGGTAALGCLVEDYFPEPVTVSWNSGALTSGVHTFPAVLQSSGLYSLSSVVTVPSSSLGTQTYICNVNHKPSNTKVDEKVEPKSCDKTHTCPPCPAPEAAGGPSVFLFPPKPKDTLMISRTPEVTCVVVDVSHEDPEVKFNWYVDGVEVHNAKTKPREEQYNSTYRVVSVLTVLHQDWLNGKEYKCKVSNKALGAPIEKTISKAKGQPREPQVCTLPPSRDELTKNQVSLSCAVKGFYPSDIAVEWESNGQPENNYKTTPPVLDSDGSFFLVSKLTVDKSRWQQGNVFSCSVMHEALHNHYTQKSLSLSP
light 1: EIVLTQSPATLSLSPGERATLSCRAGESVDIFGVGFLHWYQQKPGQAPRLLIYRASNRATGIPARFSGSGSGTDFTLTISSLEPEDFAVYYCQQTNEDPYTFGQGTKLEIKRTVAAPSVFIFPPSDRKLKSGTASVVCLLNNFYPREAKVQWKVDNALQSGNSQESVTEQDSKDSTYSLSSTLTLSKADYEKHKVYACEVTHQGLSSPVTKSFNRGEC
light 2: EVQLLESGGGLVQPGGSLRLSCAASGFTFSSYAMNWVRQAPGKGLEWVSRIRSKYNNYATYYADSVKGRFTISRDDSKNTLYLQMNSLRAEDTAVYYCVRASNFPASYVSYFAYWGQGTLVTVSSASVAAPSVFIFPPSDEQLKSGTASVVCLLNNFYPREAKVQWKVDNALQSGNSQESVTEQDSKDSTYSLSSTLTLSKADYEKHKVYACEVTHQGLSSPVTKSFNRGEC
notes: 2+1 IgG CrossFab, inverted; human IgG1 Fc, knob-into-hole, PGLALA; also called P035.093 in CEACAM5-TCB format
By Kd is commonly meant the free concentration of one partner at which half of the binding sites on the other are occupied at equilibrium, for simple one-to-one binding. High values mean a looser complex, low ones a tighter complex. Usually koff stands for a measure of how fast the partners let go of each other. Broadly, the kon is a measure of how fast the partners come together. High values mean faster complex formation, low ones slower complex formation. As for B1, in assay [1], binding was characterised by a dissociation constant (Kd) of 0.384 nM, the koff worked out at 0.00111 s⁻¹, the kon was determined as 2.93e+06 M⁻¹ s⁻¹ and the t1/2 amounted to 10.4 min. In assay [2], this molecule displayed a Kd of 0.201 nM, a koff of 0.000765 s⁻¹, a kon of 3.8e+06 M⁻¹ s⁻¹ and a t1/2 of 15.1 min. Besides, in assay [3], the “binding activity [%] after 2 weeks at pH 6.0/40°C” value was 100% and the “binding activity [%] after 2 weeks at pH 7.4/37°C” value was 97%. Also, in assay [4], the “EC50 24 h (pM), T-cell mediated lysis of CEACAM5-expressing LS180 tumor cells” value is 22 pM and the “EC50 48 h (pM), T-cell mediated lysis of CEACAM5-expressing LS180 tumor cells” value was 14.2 pM.

B2: anti-CD3 antibody clone P035.093 in monovalent IgG format (antibody)
heavy: not shown
chain: DKTHTCPPCPAPEAAGGPSVFLFPPKPKDTLMISRTPEVTCVVVDVSHEDPEVKFNWYVDGVEVHNAKTKPREEQYNSTYRVVSVLTVLHQDWLNGKEYKCKVSNKALGAPIEKTISKAKGQPREPQVCTLPPSRDELTKNQVSLSCAVKGFYPSDIAVEWESNGQPENNYKTTPPVLDSDGSFFLVSKLTVDKSRWQQGNVFSCSVMHEALHNHYTQKSLSLSP
light: B1 light 2
notes: also called monovalent IgG P035.093
With B2, in assay [5], the “binding activity [%] after 2 weeks at pH 6.0/40°C” value stood at 100% and the “binding activity [%] after 2 weeks at pH 7.4/37°C” value came to 93%. In addition, in assay [6], the Kd amounted to 0.456 nM, the koff was found to be 0.0014 s⁻¹, the kon worked out at 3.08e+06 M⁻¹ s⁻¹ and the t1/2 amounted to 8.25 min. Moreover, in assay [7], the Kd was 0.224 nM, the koff was determined as 0.000981 s⁻¹, the kon came out at 4.38e+06 M⁻¹ s⁻¹ and the t1/2 is 11.8 min.

B3: CEACAM5-TCB, CEACAM5 CD3 variant P004.042 (bispecific antibody, human IgG1, kappa, L234A L235A)
heavy 1: not shown
heavy 2: B1 heavy 2
light 1: B1 light 1
light 2: B1 light 2 with T28Q, S30D, S31N, S53T, N57E, A106Q, A113G
notes: 2+1 IgG CrossFab, inverted; human IgG1 Fc, knob-into-hole, PGLALA; also called P004.042 in CEACAM5-TCB format
In assay [1], B3 displayed a Kd of 1.31 nM, a koff of 0.00261 s⁻¹, an on-rate constant (kon) of 2.02e+06 M⁻¹ s⁻¹ and a t1/2 of 4.42 min. Also, in assay [2], the Kd turned out to be 0.641 nM, the koff was determined as 0.00162 s⁻¹, the kon was 2.54e+06 M⁻¹ s⁻¹ and the t1/2 came to 7.1 min. Moreover, in assay [3], the “binding activity [%] after 2 weeks at pH 6.0/40°C” value came to 100% and the “binding activity [%] after 2 weeks at pH 7.4/37°C” value was 99%. In assay [4], the “EC50 24 h (pM), T-cell mediated lysis of CEACAM5-expressing LS180 tumor cells” value amounted to 59.1 pM and the “EC50 48 h (pM), T-cell mediated lysis of CEACAM5-expressing LS180 tumor cells” value was found to be 36.9 pM.

B4: CD3orig in monovalent IgG format (antibody)
heavy: not shown
chain: B2 chain
light: B1 light 2 with S31T, A101H, S102G, P105G, A106N, Y111W
notes: also called monovalent IgG CD3orig
As to B4, in assay [5], the “binding activity [%] after 2 weeks at pH 6.0/40°C” value came out at 97% and the “binding activity [%] after 2 weeks at pH 7.4/37°C” value came out at 60%. Besides, in assay [6], the Kd amounted to 4.94 nM, the koff came to 0.0029 s⁻¹, the kon is 587000 M⁻¹ s⁻¹ and the t1/2 came to 3.98 min.
